Assay results reported in patent US20230407373A1 (priority 2020, published 2023).

B1: MTPAP (protein, UniProt Q9NVV4 38-582, looked up)
Poly(A) RNA polymerase, …: KDLRRDEQPSGSVETGFEDKIPKRRFSEMQNERREQAQRTVLIHCPEKISENKFLKYLSQFGPINNHFFYESFGLYAVVEFCQKESIGSLQNGTHTPSTAMETAIPFRSRFFNLKLKNQTSERSRVRSSNQLPRSNKQLFELLCYAESIDDQLNTLLKEFQLTEENTKLRYLTCSLIEDMAAAYFPDCIVRPFGSSVNTFGKLGCDLDMFLDLDETRNLSAHKISGNFLMEFQVKNVPSERIATQKILSVLGECLDHFGPGCVGVQKILNARCPLVRFSHQASGFQCDLTTNNRIALTSSELLYIYGALDSRVRALVFSVRCWARAHSLTSSIPGAWITNFSLTMMVIFFLQRRSPPILPTLDSLKTLADAEDKCVIEGNNCTFVRDLSRIKPSQNTETLELLLKEFFEYFGNFAFDKNSINIRQGREQNKPDSSPLYIQNPFETSLNISKNVSQSQLQKFVDLARESAWILQQEDTDRPSISSNRPWGLVSLLLPSAPNRKSFTKKKSNKFAIETVKNLLESLKGNRTENFTKTSGKRTISTQT
B2: HNRNPF (protein, UniProt P52597 1-415, looked up)
Heterogeneous nuclear …: MMLGPEGGEGFVVKLRGLPWSCSVEDVQNFLSDCTIHDGAAGVHFIYTREGRQSGEAFVELGSEDDVKMALKKDRESMGHRYIEVFKSHRTEMDWVLKHSGPNSADSANDGFVRLRGLPFGCTKEEIVQFFSGLEIVPNGITLPVDPEGKITGEAFVQFASQELAEKALGKHKERIGHRYIEVFKSSQEEVRSYSDPPLKFMSVQRPGPYDRPGTARRYIGIVKQAGLERMRPGAYSTGYGGYEEYSGLSDGYGFTTDLFGRDLSYCLSGMYDHRYGDSEFTVQSTTGHCVHMRGLPYKATENDIYNFFSPLNPVRVHIEIGPDGRVTGEADVEFATHEEAVAAMSKDRANMQHRYIELFLNSTTGASNGAYSSQVMQGMGVSAAQATYSGLESQSVSGCYGAGYSGQNSMGGYD
B3: SLC2A1 (protein, UniProt P11166 1-492, looked up)
Solute carrier family 2, …: MEPSSKKLTGRLMLAVGGAVLGSLQFGYNTGVINAPQKVIEEFYNQTWVHRYGESILPTTLTTLWSLSVAIFSVGGMIGSFSVGLFVNRFGRRNSMLMMNLLAFVSAVLMGFSKLGKSFEMLILGRFIIGVYCGLTTGFVPMYVGEVSPTALRGALGTLHQLGIVVGILIAQVFGLDSIMGNKDLWPLLLSIIFIPALLQCIVLPFCPESPRFLLINRNEENRAKSVLKKLRGTADVTHDLQEMKEESRQMMREKKVTILELFRSPAYRQPILIAVVLQLSQQLSGINAVFYYSTSIFEKAGVQQPVYATIGSGIVNTAFTVVSLFVVERAGRRTLHLIGLAGMAGCAILMTIALALLEQLPWMSYLSIVAIFGFVAFFEVGPGPIPWFIVAELFSQGPRPAAIAVAGFSNWTSNFIVGMCFQYVEQLCGPYVFIIFTVLLVLFFIFTYFKVPETKGRTFDEIASGFRQGGASQSDKTPEELFHPLGADSQV
B4: SLC25A5 (protein, UniProt P05141 1-298, looked up)
ADP/ATP translocase 2: MTDAAVSFAKDFLAGGVAAAISKTAVAPIERVKLLLQVQHASKQITADKQYKGIIDCVVRIPKEQGVLSFWRGNLANVIRYFPTQALNFAFKDKYKQIFLGGVDKRTQFWLYFAGNLASGGAAGATSLCFVYPLDFARTRLAADVGKAGAEREFRGLGDCLVKIYKSDGIKGLYQGFNVSVQGIIIYRAAYFGIYDTAKGMLPDPKNTHIVISWMIAQTVTAVAGLTSYPFDTVRRRMMMQSGRKGTDIMYTGTLDCWRKIARDEGGKAFFKGAWSNVLRGMGGAFVLVLYDEIKKYT
B5: HNRNPA2B1 (protein, UniProt P22626 1-353, looked up)
Heterogeneous nuclear …: MEKTLETVPLERKKREKEQFRKLFIGGLSFETTEESLRNYYEQWGKLTDCVVMRDPASKRSRGFGFVTFSSMAEVDAAMAARPHSIDGRVVEPKRAVAREESGKPGAHVTVKKLFVGGIKEDTEEHHLRDYFEEYGKIDTIEIITDRQSGKKRGFGFVTFDDHDPVDKIVLQKYHTINGHNAEVRKALSRQEMQEVQSSRSGRGGNFGFGDSRGGGGNFGPGPGSNFRGGSDGYGSGRGFGDGYNGYGGGPGGGNFGGSPGYGGGRGGYGGGGPGYGNQGGGYGGGYDNYGGGNYGSGNYNDFGNYNQQPSNYGPMKSGNFGGSRNMGGPYGGGNYGPGGSGGSGGYGGRSRY
B6: TRMT10C (protein, UniProt Q7L0Y3 40-403, looked up)
tRNA methyltransferase 10 …: MSSKIPAVTYPKNESTPPSEELELDKWKTTMKSSVQEECVSTISSSKDEDPLAATREFIEMWRLLGREVPEHITEEELKTLMECVSNTAKKKYLKYLYTKEKVKKARQIKKEMKAAAREEAKNIKLLETTEEDKQKNFLFLRLWDRNMDIAMGWKGAQAMQFGQPLVFDMAYENYMKRKELQNTVSQLLESEGWNRRNVDPFHIYFCNLKIDGALHRELVKRYQEKWDKLLLTSTEKSHVDLFPKDSIIYLTADSPNVMTTFRHDKVYVIGSFVDKSMQPGTSLAKAKRLNLATECLPLDKYLQWEIGNKNLTLDQMIRILLCLKNNGNWQEALQFVPKRKHTGFLEISQHSQEFINRLKKAKT
B7: RBM39 (protein, UniProt Q14498 2-530, looked up)
RNA-binding protein 39: ADDIDIEAMLEAPYKKDENKLSSANGHEERSKKRKKSKSRSRSHERKRSKSKERKRSRDRERKKSKSRERKRSRSKERRRSRSRSRDRRFRGRYRSPYSGPKFNSAIRGKIGLPHSIKLSRRRSRSKSPFRKDKSPVREPIDNLTPEERDARTVFCMQLAARIRPRDLEEFFSTVGKVRDVRMISDRNSRRSKGIAYVEFVDVSSVPLAIGLTGQRVLGVPIIVQASQAEKNRAAAMANNLQKGSAGPMRLYVGSLHFNITEDMLRGIFEPFGRIESIQLMMDSETGRSKGYGFITFSDSECAKKALEQLNGFELAGRPMKVGHVTERTDASSASSFLDSDELERTGIDLGTTGRLQLMARLAEGTGLQIPPAAQQALQMSGSLAFGAVAEFSFVIDLQTRLSQQTEASALAAAASVQPLATQCFQLSNMFNPQTEEEVGWDTEIKDDVIEECNKHGGVIHIYVDKNSAQGNVYVKCPSIAAAIAAVNALHGRWFAGKMITAAYVPLPTYHNLFPDSMTATQLLVPSRR
B8: JUP (protein, UniProt P14923 1-745, looked up)
Junction plakoglobin: MEVMNLMEQPIKVTEWQQTYTYDSGIHSGANTCVPSVSSKGIMEEDEACGRQYTLKKTTTYTQGVPPSQGDLEYQMSTTARAKRVREAMCPGVSGEDSSLLLATQVEGQATNLQRLAEPSQLLKSAIVHLINYQDDAELATRALPELTKLLNDEDPVVVTKAAMIVNQLSKKEASRRALMGSPQLVAAVVRTMQNTSDLDTARCTTSILHNLSHHREGLLAIFKSGGIPALVRMLSSPVESVLFYAITTLHNLLLYQEGAKMAVRLADGLQKMVPLLNKNNPKFLAITTDCLQLLAYGNQESKLIILANGGPQALVQIMRNYSYEKLLWTTSRVLKVLSVCPSNKPAIVEAGGMQALGKHLTSNSPRLVQNCLWTLRNLSDVATKQEGLESVLKILVNQLSVDDVNVLTCATGTLSNLTCNNSKNKTLVTQNSGVEALIHAILRAGDKDDITEPAVCALRHLTSRHPEAEMAQNSVRLNYGIPAIVKLLNQPNQWPLVKATIGLIRNLALCPANHAPLQEAAVIPRLVQLLVKAHQDAQRHVAAGTQQPYTDGVRMEEIVEGCTGALHILARDPMNRMEIFRLNTIPLFVQLLYSSVENIQRVAAGVLCELAQDKEAADAIDAEGASAPLMELLHSRNEGTATYAAAVLFRISEDKNPDYRKRVSVELTNSLFKHDPAAWEAAQSMIPINEPYGDDMDATYRPMYSSDVPLDPLEMHMDMDGDYPIDTYSDGLRPPYPTADHMLA
B9: KPRP (protein, UniProt Q5T749 1-579, looked up)
Keratinocyte proline-rich …: MCDQQQIQCRLPLQQCCVKGPSFCSSQSPFAQSQVVVQAPCEMQIVDCPASCPVQVCQVSDQAPCQSQTTQVKCQSKTKQVKGQAQCQSKTTQVKGQAASQSQTSSVQSQAPCQSEVSYVQCEASQPVQTCFVECAPVCYTETCYVECPVQNYVPCPAPQPVQMYRGRPAVCQPQGRFSTQCQYQGSYSSCGPQFQSRATCNNYTPQFQLRPSYSSCFPQYRSRTSFSPCVPQCQTQGSYGSFTEQHRSRSTSRCLPPPRRLQLFPRSCSPPRRFEPCSSSYLPLRPSEGFPNYCTPPRRSEPIYNSRCPRRPISSCSQRRGPKCRIEISSPCCPRQVPPQRCPVEIPPIRRRSQSCGPQPSWGASCPELRPHVEPRPLPSFCPPRRLDQCPESPLQRCPPPAPRPRLRPEPCISLEPRPRPLPRQLSEPCLYPEPLPALRPTPRPVPLPRPGQCEIPEPRPCLQPCEHPEPCPRPEPIPLPAPCPSPEPCRETWRSPSPCWGPNPVPYPGDLGCHESSPHRLDTEAPYCGPSSYNQGQESGAGCGPGDVFPERRGQDGHGDQGNAFAGVKGEAKSAYF
B10: DSG1 (protein, UniProt Q02413 50-1049, looked up)
Desmoglein-1: EWIKFAAACREGEDNSKRNPIAKIHSDCAANQQVTYRISGVGIDQPPYGIFVINQKTGEINITSIVDREVTPFFIIYCRALNSMGQDLERPLELRVRVLDINDNPPVFSMATFAGQIEENSNANTLVMILNATDADEPNNLNSKIAFKIIRQEPSDSPMFIINRNTGEIRTMNNFLDREQYGQYALAVRGSDRDGGADGMSAECECNIKILDVNDNIPYMEQSSYTIEIQENTLNSNLLEIRVIDLDEEFSANWMAVIFFISGNEGNWFEIEMNERTNVGILKVVKPLDYEAMQSLQLSIGVRNKAEFHHSIMSQYKLKASAISVTVLNVIEGPVFRPGSKTYVVTGNMGSNDKVGDFVATDLDTGRPSTTVRYVMGNNPADLLAVDSRTGKLTLKNKVTKEQYNMLGGKYQGTILSIDDNLQRTCTGTININIQSFGNDDRTNTEPNTKITTNTGRQESTSSTNYDTSTTSTDSSQVYSSEPGNGAKDLLSDNVHFGPAGIGLLIMGFLVLGLVPFLMICCDCGGAPRSAAGFEPVPECSDGAIHSWAVEGPQPEPRDITTVIPQIPPDNANIIECIDNSGVYTNEYGGREMQDLGGGERMTGFELTEGVKTSGMPEICQEYSGTLRRNSMRECREGGLNMNFMESYFCQKAYAYADEDEGRPSNDCLLIYDIEGVGSPAGSVGCCSFIGEDLDDSFLDTLGPKFKKLADISLGKESYPDLDPSWPPQSTEPVCLPQETEPVVSGHPPISPHFGTTTVISESTYPSGPGVLHPKPILDPLGYGNVTVTESYTTSDTLKPSVHVHDNRPASNVVVTERVVGPISGADLHGMLEMPDLRDGSNVIVTERVIAPSSSLPTSLTIHHPRESSNVVVTERVIQPTSGMIGSLSMHPELANAHNVIVTERVVSGAGVTGISGTTGISGGIGSSGLVGTSMGAGSGALSGAGISGGGIGLSSLGGTASIGHMRSSSDHHFNQTIGSASPSTARSRITKYSTVQYSK

These molecules were tested on HCoV-OC43 gRNA and sgRNA. Details: 24 hpi; type n_24_v; tested against no-probe control; FDR<10%.
Assay type: binding

Molecule | target (unweighted spectral count, OC43 Probe II capture)
B1 | 4

Same assay, conditions: 36 hpi; type n_36_v; tested against no-probe control; FDR<10%

Molecule | target (unweighted spectral count, OC43 Probe II capture)
B2 | 34

Same assay, conditions: OC43 Probe II, 12 hpi (type n_12_v), infected cells; tested against no-probe control

Molecule | target (unweighted spectral count)
B3 | 6
B2 | 13
B4 | 6
B5 | 28
B6 | 6
B7 | 6
B1 | 4

Same assay, conditions: OC43 Probe II, 24 hpi (type n_24_v), infected cells; tested against no-probe control

Molecule | target (unweighted spectral count)
B8 | 11
B2 | 27
B9 | 15
B10 | 8
B7 | 10

Same assay, conditions: type n_48_v; 48 hpi; OC43 Probe II capture on infected cells

Molecule | target (unweighted spectral count, OC43 Probe II)
B2 | 34
B5 | 86

Same assay, conditions: type n_48_v; 48 hpi; no-probe control on infected cells

Molecule | background (unweighted spectral count, no-probe control)
B2 | 4
B5 | 7
